Measured values taken from patent US20180111972A1.

Experiments:
[1] = biological target: human PDGFR on BJ-5ta human fibroblasts (human) (UniProt P09619); assay: flow cytometry on cells, soluble ligand titrated
[2] = biological target: human PDGFR on BJ-5ta human fibroblasts (human) (UniProt P09619); assay: flow cytometry on cells, soluble ligand titrated 3 h at 4 C, anti-FLAG-PE
[3] = biological target: human PDGFR on BJ-5ta human fibroblasts (human) (UniProt P09619); assay: flow cytometry titration of the soluble FLAG-tagged protein on BJ-5ta cells, anti-FLAG detection
[4] = biological target: human PDGFR on BJ-5ta human fibroblasts (human) (UniProt P09619); assay: flow cytometry on BJ-5ta cells, soluble ligand titrated 5 h at 4 C, anti-FLAG-PE
[5] = biological target: mouse PDGFR on NIH/3T3 mouse fibroblasts (mouse) (UniProt P05622); assay: flow cytometry on cells, soluble ligand titrated
[6] = biological target: mouse PDGFR on NIH/3T3 mouse fibroblasts (mouse) (UniProt P05622); assay: flow cytometry on cells, soluble ligand titrated 3 h at 4 C, anti-FLAG-PE

fold decrease in Kd compared to PV6 [1]	Kd [2]	EC50 (read off the curve) [3]	Kd [4]	fold decrease in Kd compared to PV6 [5]	Kd [6]	Binder
41 fold	10.9 pM	6 pM	5.1 pM	–	–	PVAM-S (PV R32A), soluble, FLAG and hexahistidine tags (designed binder) DYKDDDDKIAEPAMIAECHPIETLVDILQEYPDEIGYIFKPSCVPLMRCGGCCNNRNVQCRPTEESNITMQIMRIKPHRGQHIGEMSFLQHNKCRCETVAAGSTSGSGKSSEGKGEVVKFMDVYQRSYCKTRTEVFEISRRLIDATNANFLVWPPCVEVQRCSGCCNHEGLECVPTQVQLRPVQVRKIEFVRKKPIFKKATVTLEDHLACECRPKKDHHHHHH
63 fold	7.1 pM	–	–	22 fold	15 pM	PV RF (PV K87R chain 1 and PV I182F chain 2), soluble, FLAG and hexahistidine tags (designed binder) DYKDDDDKIAEPAMIAECHPIETLVDIFQEYPDEIEYIFKPSCVPLMRCGGCCNNRNVQCRPTEESNITMQIMRIKPHQGQHIGEMSFLQHNKCRCETVAAGSTSGSGKSSEGKGEVVKFMDVYQRSYCKTRTEVFEISRRLIDRTNANFLVWPPCVEVQRCSGCCNDEGLECVPTQVQLRPVQVRKIEFVRKKPIFKKATVTLEDHLACECRPKKDHHHHHH
